Measured values taken from patent US7201905B2, “Bi-functional cancer treatment agents” (Greenville Hospital System, priority 2001, dated 2007).

B1: hPRL-G129R: human prolactin with substitution of Gly to Arg at position 129 (SEQ ID NO: 34), hPRLR antagonist (protein)
chain: LPICPGGAARCQVTLRDLFDRAVVLSHYIHNLSSEMFSEFDKRYTHGRGFITKAINSCHTSSLATPEDKEQAQQMNQKDFLSLIVSILRSWNEPLYHLVTEVRGMQEAPEAILSKAVEIEEQTKRLLEGMELIVSQVHPETKENEIYPVWSGLPSLQMADEESRLSAYYNLLHCLRRDSHKIDNYLKLLKCRIIHNNNC
B2: hPRL: human prolactin (protein)
chain: LPICPGGAARCQVTLRDLFDRAVVLSHYIHNLSSEMFSEFDKRYTHGRGFITKAINSCHTSSLATPEDKEQAQQMNQKDFLSLIVSILRSWNEPLYHLVTEVRGMQEAPEAILSKAVEIEEQTKRLLEGMELIVSQVHPETKENEIYPVWSGLPSLQMADEESRLSAYYNLLHCLRRDSHKIDNYLKLLKCRIIHNNNC

What was measured:
L-1210 tumor cells = details: inhibiting cell growth and differentiation, read-out: IC50, cytotoxic effects against L-1210 tumor cells; cited from earlier work
[1] = test system: STAT5 phosphorylation in T-47D human breast cancer cells; assay: STAT 5 phosphorylation/immunoprecipitation assay; type: cell-based; details: T-47D cells, 30 min incubation, anti-phosphotyrosine blot
Experimental: T-47D cells are grown in RPMI-1640 medium containing 10% Charcoal Stripped Fetal Bovine Serum (CSFBS; growth medium). For each experiment, cells are passed into 6 well culture plates in growth medium till reach 90% confluence. On the day of the experiment, cells are depleted in serum free media for one hour and incubated in hPRL, hPRL-G129R or combination of two for 30 min. After treatment, T47-D cells are washed once with ice cold PBS and collected by gentle scraping in 1 ml ice cold lysis buffer [20 mM Tris-Cl (pH 7.4), 100 mM NaCl, 2 mM EDTA, 1% NP-40, 1 mM phenylmethylsulfonyl fluoride, 10 ug/ml aprotinin, 10 ug/ml leupeptin]. The lysis mixture is then passed through a 22 gauge needle several times avoiding air bubbles and spin at maximum speed for 20 minutes. The supernatant is then transferred to a new microcentrifuge tube. Five μg of STAT5 monoclonal antibody is then added to 100 microliters (200–500 micrograms total protein) of cell lysate along with 400 microliters of ddH20 and 500 microliters of 2×IP buffer [1% Triton X-100, 150 mM NaCl, 10 mM Tris pH 7.4, 1 mM EDTA, 1 mM EGTA, 0.2 mM sodium vanadate, 0.2 mM PMSF, 0.5% NP-40] to each reaction. After overnight incubation at 4° C. and gentle rotation, 50 microliters of prewashed (1×IP buffer) protein A agarose beads are added to each IP reaction and continue the Incubation for another 2 hours at 4C. […]

[2] = test system: T-47D human breast cancer cells; assay: T-47D co-culture method with L cells (FIG. 3); type: cell-based; details: co-cultured with L-PRL or L-hPRL-G129R cells, dose-response
Excerpt: The x-axis represents the co-cultured L cell (control, L-PRL or L-hPRL-G129R cell numbers. Each data point represents a mean of at least three independent experiments with triplicate wells.

[3] = test system: T-47D human breast cancer cells; assay: T-47D human breast cancer cell proliferation assay (FIG. 4); type: cell-based
Excerpt: The x-axis represents the hPRL-G129R concentration either in the absence (open bars) or presence of 4-OH-Tamoxifen. Each data point represents a mean of at least three independent experiments with triplicate wells.

Molecule	IC50 (L-1210 tumor cells) [nM]	block of signal transduction (STAT5 phosphorylation) induced by hPRL [1]	effect on T-47D cells, co-culture method [2]	effect on T-47D cell proliferation ([3]; hPRL-G129R alone, dose-response)	effect on T-47D cell proliferation in combination ([3]; in presence of 4-OH-Tamoxifen)
COc1ccc2c(c[n+](C)c3c4cc5c(cc4ccc23)OCO5)c1OC [chelerythrine, 1,2-dimethoxy-12-methyl[1,3]benzodioxolo[5,6-c]phenanthridinium]	53	–	–	–	–
B1	–	able to block the signal transduction induced by hPRL	dose-response inhibitory effects	dose-response inhibitory effects	additive effects with 4-OH-Tamoxifen
B2	–	–	stimulatory effects	–	–
